For 1 molecule, Kd results are on record in article PMC5534435, “The Amyloid Precursor Protein Is a Conserved Receptor for Slit to Mediate Axon Guidance” (eNeuro, 2017).

In the assay the target is T1, Rat Robo1 tagged with the hemagglutinin (Robo1-HA) (rat, UniProt O55005 26-1651).
T1 construct: Roundabout homolog 1 (Robo1), rat; The sentence with the Kd calls it Robo2, the methods name only rat Robo1-HA; also called Robo-HA; HA-Robo; source: HEK293, transfected
Kind of assay: binding of alkaline phosphatase-tagged ligand to transfected cells; HEK293 cells transfected with FL APP or HA-Robo incubated with serial dilutions of supernatants with AP-tagged Slit2 and 1 μg/ml heparin, 2 h at 37°C; AP activity in cell lysates; Hill equation, Scatchard plot. The settings on record: partners not purified.

T1 sequence (O55005 26-1651): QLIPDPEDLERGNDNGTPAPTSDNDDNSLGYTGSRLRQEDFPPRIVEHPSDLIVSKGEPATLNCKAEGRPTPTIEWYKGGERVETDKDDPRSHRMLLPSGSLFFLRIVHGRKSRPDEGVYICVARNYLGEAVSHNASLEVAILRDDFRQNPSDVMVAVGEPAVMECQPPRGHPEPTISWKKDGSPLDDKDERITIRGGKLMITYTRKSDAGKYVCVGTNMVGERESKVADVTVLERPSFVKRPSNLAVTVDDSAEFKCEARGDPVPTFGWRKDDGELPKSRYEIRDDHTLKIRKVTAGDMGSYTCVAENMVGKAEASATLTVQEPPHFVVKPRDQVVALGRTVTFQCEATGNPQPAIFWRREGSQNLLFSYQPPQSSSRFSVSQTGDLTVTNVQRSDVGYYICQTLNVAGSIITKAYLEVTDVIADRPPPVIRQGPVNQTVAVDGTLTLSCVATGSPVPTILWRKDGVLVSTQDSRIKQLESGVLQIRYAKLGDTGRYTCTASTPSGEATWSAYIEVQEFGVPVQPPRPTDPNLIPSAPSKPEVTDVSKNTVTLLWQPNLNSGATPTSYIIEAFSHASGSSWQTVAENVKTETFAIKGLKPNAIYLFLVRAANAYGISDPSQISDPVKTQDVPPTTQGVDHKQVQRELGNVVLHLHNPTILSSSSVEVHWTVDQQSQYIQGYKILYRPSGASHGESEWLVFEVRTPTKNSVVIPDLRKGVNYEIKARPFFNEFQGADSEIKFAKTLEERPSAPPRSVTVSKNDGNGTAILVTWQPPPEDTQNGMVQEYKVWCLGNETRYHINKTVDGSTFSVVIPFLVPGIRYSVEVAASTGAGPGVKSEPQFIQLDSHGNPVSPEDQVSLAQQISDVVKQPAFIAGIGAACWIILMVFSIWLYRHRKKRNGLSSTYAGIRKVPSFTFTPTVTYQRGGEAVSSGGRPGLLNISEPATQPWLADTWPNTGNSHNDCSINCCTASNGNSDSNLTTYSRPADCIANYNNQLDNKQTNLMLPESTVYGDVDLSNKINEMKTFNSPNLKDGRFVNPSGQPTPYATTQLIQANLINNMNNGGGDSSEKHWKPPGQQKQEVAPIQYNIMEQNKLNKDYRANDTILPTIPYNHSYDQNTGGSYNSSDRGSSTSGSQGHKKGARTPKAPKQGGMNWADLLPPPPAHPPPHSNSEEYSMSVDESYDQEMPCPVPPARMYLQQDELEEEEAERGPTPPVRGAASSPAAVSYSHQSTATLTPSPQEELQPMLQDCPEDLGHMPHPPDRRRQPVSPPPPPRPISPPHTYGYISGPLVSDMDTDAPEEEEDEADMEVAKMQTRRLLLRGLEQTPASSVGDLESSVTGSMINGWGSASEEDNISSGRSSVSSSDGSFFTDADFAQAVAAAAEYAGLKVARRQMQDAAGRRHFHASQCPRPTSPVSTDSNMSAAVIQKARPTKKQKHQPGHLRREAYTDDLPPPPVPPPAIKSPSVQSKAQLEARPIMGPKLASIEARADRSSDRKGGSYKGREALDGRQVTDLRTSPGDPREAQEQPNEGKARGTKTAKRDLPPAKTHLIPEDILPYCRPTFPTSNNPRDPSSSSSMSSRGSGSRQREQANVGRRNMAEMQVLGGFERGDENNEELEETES

B1: FL Slit2 fused N terminally to the human alkaline phosphatase sequence (ligand, UniProt O94813 31-1529, looked up)
chain: QCSCSGSTVDCHGLALRSVPRNIPRNTERLDLNGNNITRITKTDFAGLRHLRVLQLMENKISTIERGAFQDLKELERLRLNRNHLQLFPELLFLGTAKLYRLDLSENQIQAIPRKAFRGAVDIKNLQLDYNQISCIEDGAFRALRDLEVLTLNNNNITRLSVASFNHMPKLRTFRLHSNNLYCDCHLAWLSDWLRQRPRVGLYTQCMGPSHLRGHNVAEVQKREFVCSGHQSFMAPSCSVLHCPAACTCSNNIVDCRGKGLTEIPTNLPETITEIRLEQNTIKVIPPGAFSPYKKLRRIDLSNNQISELAPDAFQGLRSLNSLVLYGNKITELPKSLFEGLFSLQLLLLNANKINCLRVDAFQDLHNLNLLSLYDNKLQTIAKGTFSPLRAIQTMHLAQNPFICDCHLKWLADYLHTNPIETSGARCTSPRRLANKRIGQIKSKKFRCSAKEQYFIPGTEDYRSKLSGDCFADLACPEKCRCEGTTVDCSNQKLNKIPEHIPQYTAELRLNNNEFTVLEATGIFKKLPQLRKINFSNNKITDIEEGAFEGASGVNEILLTSNRLENVQHKMFKGLESLKTLMLRSNRITCVGNDSFIGLSSVRLLSLYDNQITTVAPGAFDTLHSLSTLNLLANPFNCNCYLAWLGEWLRKKRIVTGNPRCQKPYFLKEIPIQDVAIQDFTCDDGNDDNSCSPLSRCPTECTCLDTVVRCSNKGLKVLPKGIPRDVTELYLDGNQFTLVPKELSNYKHLTLIDLSNNRISTLSNQSFSNMTQLLTLILSYNRLRCIPPRTFDGLKSLRLLSLHGNDISVVPEGAFNDLSALSHLAIGANPLYCDCNMQWLSDWVKSEYKEPGIARCAGPGEMADKLLLTTPSKKFTCQGPVDVNILAKCNPCLSNPCKNDGTCNSDPVDFYRCTCPYGFKGQDCDVPIHACISNPCKHGGTCHLKEGEEDGFWCICADGFEGENCEVNVDDCEDNDCENNSTCVDGINNYTCLCPPEYTGELCEEKLDFCAQDLNPCQHDSKCILTPKGFKCDCTPGYVGEHCDIDFDDCQDNKCKNGAHCTDAVNGYTCICPEGYSGLFCEFSPPMVLPRTSPCDNFDCQNGAQCIVRINEPICQCLPGYQGEKCEKLVSVNFINKESYLQIPSAKVRPQTNITLQIATDEDSGILLYKGDKDHIAVELYRGRVRASYDTGSHPASAIYSVETINDGNFHIVELLALDQSLSLSVDGGNPKIITNLSKQSTLNFDSPLYVGGMPGKSNVASLRQAPGQNGTSFHGCIRNLYINSELQDFQKVPMQTGILPGCEPCHKKVCAHGTCQPSSQAGFTCECQEGWMGPLCDQRTNDPCLGNKCVHGTCLPINAFSYSCKCLEGHGGVLCDEEEDLFNPCQAIKCKHGKCRLSGLGQPYCECSSGYTGDSCDREISCRGERIRDYYQKQQGYAACQTTKKVSRLECRGGCAGGQCCGPLRSKRRKYSFECTDGSSFVDEVEKVVKCGCTRCVS
notes: Slit2, full length, put in place of Netrin 5 in the vector Ntn5.a-AP-His (Addgene); also called AP-tagged Slit2; alkaline phosphatase (AP)-tagged Slit2; source: HEK293T, transfected, in supernatant; not shown: alkaline phosphatase (human), C-terminal, kept
B1: the Kd worked out at 19.6 nM.
